Experimental data reported in the DeepSol protein solubility set.

Test: soluble on expression in E. coli; label from the status in PepcDB or PDB records

| Sequence | soluble on expression in E. coli |
| --- | --- |
| MGSDKIHHHHHHMEEIKFPTNESGLCMNEKGVPWEDLKIVQAIADSGSLAGAGRTLGISHATVFRRLGALESRLGVRLFERHRTGYVPTLAGDDLATTAARVALDIEAVERRLMGRDARLSGTLRVTTTDTLLMGMLSDELAGFQRTYPHIVLEVEVSNRTYDLSRRDADVAIRPTSAPPETLIGRQVGQIAQAVYVSRCHRETSGWVGPDPHLGYPVLERWMARQGVDAQCRYHVDSMLGMLAGVRSGMGRGVLPCYLADMADDLVRASEPLPELQTELWLLTHPDLRNTARVQALFAYLSDSLKARQASLLGTMAAS | not soluble |
| MPKITVYTGKEVLQIDAKEGSSLLDILAENSLYVEAPCGGKGICGKCKVAVKKDGKPYLENITKEEKRLLTSDELQKGIRLCCNLKVFESLEVFLPHSKIGAKILSGLYTLEHHHHHH | not soluble |
| GSGSRMKTVDKSKTLTKFEEFFSLQDYKDRVFEAIEKYPNVRSIEVDYLDLEMFDPDLADLLIEKPDDVIRAAQQAIRNIDRLRKNVDLNIRFSGISNVIPLRELRSKFIGKFVAVDGIVRKTDEIRPRIVKAVFECRGCMRHHAVTQSTNMITEPSLCSECGGRSFRLLQDESEFLDTQTLKLQEPLENLSGGEQPRQITVVLEDDLVDTLTPGDIVRVTGTLRTVRDERTKRFKNFIYGNYTEFLEQEFEELQISEEDEEKIKELAGDPNIYEKIIR | soluble |
| MVSDISNSRILRRRSSTFTDPTNLLAVHELRSRILQDPAISVKHLSDDVHRIRHEDWWLDRFLGSVNYDVDIAYAIMLECLKWRRNFEVDRISLLSLKPLLDNQLMYLHGKDLQNRHMLWIMMNKYKNGDDGFEKLFTFWIERHYMEYKGCQPLTVFIDMTGTGLKNMSFDAMKFIIHSSKYYYPNSIESILIFENPAILNASWKVIGSWLESSAASQRHDLLTFVTKLSVTHYVPKSHLLEHQGGTDTFKFTMDELAKCLPPPPPPKPSPKLLQQRMHSIDDSTNNNNVKFDEESTTKRAPSLSRRSSRGPKSRKSHIPPSLRPLIENRVNAPSDDWSSNDFVSITPRDELRLEKLDGENDLLDVVLVKNQSSDTPIMFKFKTTSPEKFRVRPSSGIVQPGTTEIIRVYLQYGESTDTRGTKKSFCFLQWNRHQQTLKASLNSSNQQATRQNSNSNVDCQKI | not soluble |
| MAHHHHHHMTETTGARGRRTFMGRRRSQHEVQTEASFVPGCSSLEYAYDPLASEQYANLVELRQMIHSCLTLVAGDVYDVVSFKDILYHLESEMPSSLPVTDLLLLSSRLFRRTAELGRLLSCFFGVVFADDRNDEHFRFAEVRLLQREIRELKRQLSASEEERRRLKEMLDNVGQVAYDHGRAVELLETHNKVLKKQSTALEDQMALLFHQLNTGLEGHCKSAYQQVTGEMMVQESLNPARITFRQTMDSLSEQLRGSRGLITDVREVLLSCSQGRRTGEAYAAVEPTVRFKLKMLEANFQQLMGRFTAVKDTVVETAQELMNALQERKKILCLSFQHIRLYDLQNAKLRNARAILAQLQHNTSEVVRRIRVTFPSGNLTSVDRFGNIRTQRWHGGYTLATLRGYNLTEQQQQGEGEMSEVARSSTAVPSLTAGASRTLPGLTESQIMAAESEMAVIDGGVHSVTPVGLALSPGFRSMRASHSGVSPPPLRTSVPPSRGGSKLASARGSSSTTGMPAPVSAPTSVRSDDPDVLPFESVSTFVDLMHDIHDDMDELQSALVLDDEMAAFLKVLTLSASTTPRADALEIAGDPTGRAALLERQEYNMETALQPTGGRPGGTRGAPSSASVVSGNESITALEANSFSSLFSKMGTPSTSSEARGGARAENASSEAVMARQAVQLQRQQKQIAKMQEDFTSKVGFLRQVYEARIGDLEVRETTVSKRLGLVGGSAFQRGAGDGGSGRSSPGVRKGEDESPVSSSPGDKERLTKLRKEWRQSKRKLQPNRKLREATAEQLQLMQKDEKL | not soluble |
| MGSDKIHHHHHHMKVLLIIPAYNEEENILRTIASIETFKQEVTHFQHELDYVVINDGSTDGTKQILEANQINAIHLVLNLGIGGAVQTGYKYALENEYDVAVQFDGDGQHDINSLPILLEPLAEGKCDFSIGSRFIPGNEASFQSTKMRRFGIRLLSFCIRMASGKTIYDVTSGYRAGNRKVIAFFAKRYPTNYPEPESIVHLIKKRFVIVERPVNMMERLGGVSSIRALASVKYMLEVGSAILIAAFMKEGD | not soluble |
| NFIYAHLNRIIRRDDLNMIYIAGPGHGGPALVANTYLEGTYSEHYPDISQDIQGMKHLFRQFSFPGGIGSHATPEIPGSIHEGGELGYALSHAFGAVFDNPDLIAACVVGDGEAETGPLATAWHSNKFLNPVHDGAVLPILHLNGYKIANPTILARISREELDQLFQGYGYQPYIVEGEDPLTMHQLMA | not soluble |
| MNVIALMAGDSNDFKEKGYTYPKYFLELDNKPLVQNIVESLKKIDCKITFIIRKEDNDQFFLGSSLKILAPFADVVCISGSTKGAVCTTLFAIDSINNEDEVLLINGDQLVKYDINDIIADFRERNLDGGIVTFESVHPRWSYVCLDEQGLVVQTSEKRPISNVATAGIYYYKRGLDLVESCFSVLKKDVQLNGSYYISSTFNELILRQKKVGVYKIDKKEYISFATTQMYENYINKKLEHHHHHH | soluble |
| MGSHHHHHHDITSLYKKAGSAAAVLEENLYFQGSFTMRRKVFEELVTATKILLNEGIMDTFGHISARDPEDPASFFLAQKLAPSLITVDDIQRFNLDGETSDNRPSYLERYIHSEIYKTRPDVQCVLHTHSPAVLPYCFVDTPLRPVTHMGAFIGESVPVYEIRDKHGDETDLFGGSPDVCADIAESLGSQTVVLMARHGVVNVGKSVREVVFRAFYLEQEAAALTAGLKIGNVKYLSPGEIKTAGKLVGAQIDRGWNHWSQRLRQAGLA | soluble |
| MAHHHHHHMFLIVDAGDMLVEGLFVEANNTTLHYREKFIVKNTDGSMAINAASMTRQLHPRKQMHLHPSSLPIAIHQDNRTPLQHMLRGTHHMQRPTVVSCNTPTMAIMKGTEDVVLRRDTTTRHAGAQFRALQDLLQLKRARAGHTHLTSRSKWIGLDRQKRTPHRF | not soluble |
| MSLALQEQCLWETLTPQRPDRAPLKGELTADVCIIGAGFTGLSAAVHLLEQGKRVCVVEAHRAGHGGSGRNVGLVNAGMWIPPDEIEAGFGEQVGSQLNRMLGAAPSLVFSLVDKYHIDCQLRREGTLHMAHNARGEADLRSREEQWKRRGAPVELLTGAACEAATGTRKIAAALLDRRAGTLNPMAYVSGLARAATELGGRLFDHSPVTRLERQGQRWSVQTEQGSVLAEQVVIASNAYTEGDWTELRRNFFPGYYYQVASAPLTEEAARQILPGGQGSWDTRQVLSSIRRDAEGRLLLGSLGNGSQKPLWFLKAWADRVQQHYFPYLKPVEWECTWTGCIAFTPDHLMRLFEPAPGLVAVTGYNGRGVTTGTVVGKAFADYLCNGDPQALPIPFAAMQPLAGVGLRSCLYEAGFSLYHAGQCLRIVEGHHHHHH | not soluble |
| MVVDTEYYDLLGVSTTASSIEIKKAYRKKSIQEHPDKNPNDPTATERFQAISEAYQVLGDDDLRAKYDKYGRKEAIPQGGFEDAAEQFSVIFGGDAFASYIGELMLLKNLQKTEELNAEDEAEKEKENVETMEESPADGKTNGTTNAVDAALGNTNEKDDKNKARTTSGNLTVHDGNKKNEQVGAEAKKKKTKLEQFEEEQEVEKQKRVDQLSKTLIERLSILTESVYDDACKDSFKKKFEEEANLLKMESFGLDILHTIGDVYYEKAEIFLASQNLFGMGGIFHSMKAKGGVFMDTLRTVSAAIDAQNTMKELEKMKEASTNNGPLFDKDGNEQIKPTTEELAQQEQLLMGKVLSAAWHGSKYEITSTLRGVCKKVLEDDSVSKKTLIRRAEAMKLLGEVFKKTFRTKVEQEEAQIFEELVAEATKKKRHT | not soluble |
| MGSDKIHHHHHHMKALWILLSLTLWLFGAQNLELIKGQALFLELDKKDFLSLKNNDKNIPTFAHPKNQEKILAIFSLPYKNPPQNTKLIAFYKDKKEEIFIKTLEGNYKSEKLQIENKKIFPPKTIQERITKELKEANAIYSSYTPKALFNGAFNIPLNSFITSDFGKARTFNEKVASYHSGTDFRATTGTPIYAANSGVVKIAKDRYFAGNSVVIDHGFGIYSQYYHLSKIDVKIGQKIKKGELIGLSGATGRVSGPHLHFGILAGGKQVDPLDFVSKFNAIFQ | not soluble |
| MSKRLPPLNALRVFDAAARHLSFTRAAEELFVTQAAVSHQIKSLEDFLGLKLFRRRNRSLLLTEEGQSYFLDIKEIFSQLTEATRKLQARSAKGALTVSLLPSFAIHWLVPRLSSFNSAYPGIDVRIQAVDRQEDKLADDVDVAIFYGRGNWPGLRVEKLYAEYLLPVCSPLLLTGEKPLKTPEDLAKHTLLHDASRRDWQTYTRQLGLNHINVQQGPIFSHSAMVLQAAIHGQGVALANNVMAQSEIEAGRLVCPFNDVLVSKNAFYLVCHDSQAELGKIAAFRQWILAKAAAEQEKFRFRYEQ | soluble |
| MKCSKCGREAIYFARYEGRYYCHKHFNELVEGKVKRTIRKYRMIKRGEKVGVAVSGGKDSVVLMHILAKLRKKFPFELVAITIDEGIKGYRDKSVEVARKNAELLGVEHHIYRFKDFIGFTLDETVEIMGPREERVGACSYCGVWRRWLLNKAAEELGVDKLALGLNLDDEVQVFLMNLMRGDVARLGRTGPYYEVIHEGLVPRIKPLREVPEKEIVLYAVLNNIEVDLSECPYATEAFRAEIRDWLNEMEEKHPGTKYQLLRSYDKIFPLLAKTYAKEVKLNRCKICGQPTSGEICKACQFRLQVKEKSENLKFSLTK | not soluble |
| MGSDKIHHHHHHLNAAAQTTPEIRRPQLGWTMLETPRFLSETALLALAWPMLAKAPQGDGHPVMVLPGFATNDTMTVLLRSFLARLGYQVFPWDLGWNLDQHSAGENGEHLAARIDAIAAETGRKVSLVGWSLGGVIAREAARRDHGGLRQVVTLGSPFTGNPRATSLTSLYELLTGNKASSEKSAARYARGHHPLPVPSTAIFSRTDGITAWENCVSETDDRTENIEVHCSHFGFVANPGVFWAVADRLAQPEGQWRKFDPKGCFAAFYP | not soluble |
| MFNRIMVPVDGSKGAVKALEKGVGLQQLTGAELYILCVFKHHSLLEASLSMARPEQLDIPDDALKDYATEIAVQAKTRATELGVPADKVRAFVKGGRPSRTIVRFARKRECDLVVIGAQGTNGDKSLLLGSVAQRVAGSAHCPVLVV | soluble |
| MTAFEEFGIIPELSDALSSLNWTLPTAVQSEAIPAILGGADALIAAETGSGKTGAFSLPIAQIVWERRKSAEKSQNSGQKPENSREFQLNREDRDVSLQIDKTGLNCESRVAKEWHGARATAGLYGNGKYYYEVTVTRDGLCRVGWATLSGSLKIGTDFESFGYGGTGKKSFGKKFDDYGTSFTTNDVLGCFLDLDELKIWWSKNGVQFPVAYQIDKKFKTAATCLYPAILCQNSGLGVNFGGSAAFKYPPGTQYVAVAQAEDGNLKWWSAAEQLSIDSSTPLCVILEPTRELVQQTFQNIQTFASVLDSPKIRCVTLAAGENMNQILRTLETGCDIVVGTPSRVFDLIHTGKLATKNLQFVVIDEIDQFLAGKNNCAHQIESIFRVLPLVAQDGTRRQVIACSATLHNFEVCRFADRHMSFPQWIDLKGADCVSADVHHVVCHVDASEDKQWIRQMHQQVHLEDDHVHDGDQIRPGTTDKDTISLGTKILKGIYVVRAIHALQMDKAIVFCRTKQQCDHMEHFLQQNNLSAACLHGDRSAEERQSSLEGFKKGIIRFLVCSDVVARGLDVQGVPFVISVTLPDEKSMYVHRIGRVGRAERMGLSISLVSEYEEKAWYHKCRSRGVNCTNTKDISKGGCTIWLQEKKMLGEIEEHLGATISTVDSDFNVPVDEFDGKVVYGERRTGGANFDTHVLQLASSASQLADLETKMQLEYLNNNRHVFEIHSM | not soluble |
| MSLGYDHPEILLNFKKDADIWDMMLNTNYMKTCREVVFEYLGVKNGDTVLEVGCGSRSPVYFASKVAPNGAYTGVDISKKLIRVAEGRLKRSGVECVNLKSMDFSETITKYKHDYVLCIHTLSYAHSMKLFLKKMMESLRKGGKLLIMEEFFTENINTNAELFEFYNHLNKYFKNYVSRTEILKEIEMLGYDFKYELLGNNCIVVERIEGHHHHHH | not soluble |
